# Measurements reported in IntAct's records for PubMed 35512704.
# B1: Mothers against decapentaplegic homolog 4 (Homo sapiens), Q13485 (parent)
# chain: MDNMSITNTPTSNDACLSIVHSLMCHRQGGESETFAKRAIESLVKKLKEKKDELDSLITAITTNGAHPSKCVTIQRTLDGRLQVAGRKGFPHVIYARLWRWPDLHKNELKHVKYCQYAFDLKCDSVCVNPYHYERVVSPGIDLSGLTLQSNAPSSMMVKDEYVHDFEGQPSLSTEGHSIQTIQHPPSNRASTETYSTPALLAPSESNATSTANFPNIPVASTSQPASILGGSHSEGLLQIASGPQPGQQQNGFTGQPATYHHNSTTTWTGSRTAPYTPNLPHHQNGHLQHHPPMPPHPGHYWPVHNELAFQPPISNHPAPEYWCSIAYFEMDVQVGETFKVPSSCPIVTVDGYVDPSGGDRFCLGQLSNVHRTEAIERARLHIGKGVQLECKGEGDVWVRCLSDHAVFVQSYYLDREAGRAPGDAVHKIYPSAYIKVFDLRQCHRQMQQQAATAQAAAAAQAAAVAGNIPGPGSVGGIAPAISLSAAAGIGVDDLRRLCILRMSFVKGWGPDYPRQSIKETPCWIEIHLHRALQLLDEVLHTMPIADPQPLD
# partner: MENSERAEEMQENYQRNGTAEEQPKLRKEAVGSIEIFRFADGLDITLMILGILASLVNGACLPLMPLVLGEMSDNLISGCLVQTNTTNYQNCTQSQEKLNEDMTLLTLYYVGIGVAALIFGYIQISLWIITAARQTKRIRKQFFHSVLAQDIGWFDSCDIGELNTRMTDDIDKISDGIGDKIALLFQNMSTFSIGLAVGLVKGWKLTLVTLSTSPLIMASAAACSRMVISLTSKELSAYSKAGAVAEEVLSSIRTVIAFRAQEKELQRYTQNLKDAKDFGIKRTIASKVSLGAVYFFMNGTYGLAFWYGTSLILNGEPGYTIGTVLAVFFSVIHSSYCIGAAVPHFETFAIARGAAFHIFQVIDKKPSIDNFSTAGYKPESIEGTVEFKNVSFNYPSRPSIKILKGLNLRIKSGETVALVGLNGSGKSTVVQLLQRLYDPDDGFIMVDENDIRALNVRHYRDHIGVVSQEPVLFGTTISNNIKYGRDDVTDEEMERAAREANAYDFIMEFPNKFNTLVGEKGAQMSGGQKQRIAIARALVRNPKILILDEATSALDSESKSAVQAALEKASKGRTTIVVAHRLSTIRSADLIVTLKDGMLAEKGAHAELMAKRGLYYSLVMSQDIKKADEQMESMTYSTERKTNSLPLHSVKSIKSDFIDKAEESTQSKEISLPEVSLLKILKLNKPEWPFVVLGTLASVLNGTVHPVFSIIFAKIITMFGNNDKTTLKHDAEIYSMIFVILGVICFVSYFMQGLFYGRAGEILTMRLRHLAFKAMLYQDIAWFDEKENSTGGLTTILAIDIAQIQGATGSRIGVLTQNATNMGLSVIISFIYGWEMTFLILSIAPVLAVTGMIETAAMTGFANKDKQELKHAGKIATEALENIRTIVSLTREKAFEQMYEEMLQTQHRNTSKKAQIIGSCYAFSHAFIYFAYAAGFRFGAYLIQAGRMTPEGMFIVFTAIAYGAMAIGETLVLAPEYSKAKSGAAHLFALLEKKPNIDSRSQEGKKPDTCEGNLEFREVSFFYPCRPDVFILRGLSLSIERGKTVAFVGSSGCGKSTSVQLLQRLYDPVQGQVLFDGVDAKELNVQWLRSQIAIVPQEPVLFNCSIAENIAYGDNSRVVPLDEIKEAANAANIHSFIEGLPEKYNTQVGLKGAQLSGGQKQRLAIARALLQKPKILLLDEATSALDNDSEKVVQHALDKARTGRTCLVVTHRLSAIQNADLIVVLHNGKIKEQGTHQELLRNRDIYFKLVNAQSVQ
# B2: Mothers against decapentaplegic homolog 4 (Homo sapiens), Q13485 (parent)
# chain: B1 chain
# partner: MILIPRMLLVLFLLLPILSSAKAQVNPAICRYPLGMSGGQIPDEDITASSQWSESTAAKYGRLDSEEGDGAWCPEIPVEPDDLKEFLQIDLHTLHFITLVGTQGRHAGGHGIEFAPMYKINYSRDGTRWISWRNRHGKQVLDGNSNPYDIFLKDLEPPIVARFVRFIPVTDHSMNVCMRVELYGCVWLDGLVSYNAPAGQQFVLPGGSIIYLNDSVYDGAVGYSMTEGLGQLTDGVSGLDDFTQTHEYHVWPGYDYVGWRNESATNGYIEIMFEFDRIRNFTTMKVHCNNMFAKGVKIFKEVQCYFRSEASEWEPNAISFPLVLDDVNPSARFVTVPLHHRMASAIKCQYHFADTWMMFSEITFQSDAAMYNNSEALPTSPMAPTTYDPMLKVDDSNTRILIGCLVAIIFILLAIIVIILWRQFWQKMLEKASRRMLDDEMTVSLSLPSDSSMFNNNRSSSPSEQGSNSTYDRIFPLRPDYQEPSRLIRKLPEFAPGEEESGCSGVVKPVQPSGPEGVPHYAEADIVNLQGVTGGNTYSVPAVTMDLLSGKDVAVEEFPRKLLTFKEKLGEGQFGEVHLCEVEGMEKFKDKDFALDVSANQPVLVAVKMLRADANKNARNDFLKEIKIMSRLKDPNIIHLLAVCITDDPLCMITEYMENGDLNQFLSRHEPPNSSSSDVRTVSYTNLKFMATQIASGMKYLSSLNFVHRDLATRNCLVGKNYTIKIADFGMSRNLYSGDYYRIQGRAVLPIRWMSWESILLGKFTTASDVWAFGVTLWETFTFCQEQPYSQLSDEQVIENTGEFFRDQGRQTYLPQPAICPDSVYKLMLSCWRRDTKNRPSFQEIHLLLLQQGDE
# B3: 14-3-3 protein zeta/delta (Homo sapiens), P63104 (parent)
# chain: MDKNELVQKAKLAEQAERYDDMAACMKSVTEQGAELSNEERNLLSVAYKNVVGARRSSWRVVSSIEQKTEGAEKKQQMAREYREKIETELRDICNDVLSLLEKFLIPNASQAESKVFYLKMKGDYYRYLAEVAAGDDKKGIVDQSQQAYQEAFEISKKEMQPTHPIRLGLALNFSVFYYEILNSPEKACSLAKTAFDEAIAELDTLSEESYKDSTLIMQLLRDNLTLWTSDTQGDEAEAGEGGEN
# B4: Mothers against decapentaplegic homolog 4 (Homo sapiens), Q13485 (parent)
# chain: B1 chain
# partner: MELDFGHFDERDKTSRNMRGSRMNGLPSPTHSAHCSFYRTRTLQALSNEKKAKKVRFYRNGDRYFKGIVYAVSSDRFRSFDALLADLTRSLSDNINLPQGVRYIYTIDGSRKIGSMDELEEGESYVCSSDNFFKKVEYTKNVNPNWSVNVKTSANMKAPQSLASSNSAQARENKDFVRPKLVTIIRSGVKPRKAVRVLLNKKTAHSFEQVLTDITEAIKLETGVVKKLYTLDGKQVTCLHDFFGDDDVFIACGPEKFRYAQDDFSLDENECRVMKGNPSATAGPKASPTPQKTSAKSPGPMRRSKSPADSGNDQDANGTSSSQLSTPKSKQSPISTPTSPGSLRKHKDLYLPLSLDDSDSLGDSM
# B5: Mothers against decapentaplegic homolog 4 (Homo sapiens), Q13485 (parent)
# chain: B1 chain
# partner: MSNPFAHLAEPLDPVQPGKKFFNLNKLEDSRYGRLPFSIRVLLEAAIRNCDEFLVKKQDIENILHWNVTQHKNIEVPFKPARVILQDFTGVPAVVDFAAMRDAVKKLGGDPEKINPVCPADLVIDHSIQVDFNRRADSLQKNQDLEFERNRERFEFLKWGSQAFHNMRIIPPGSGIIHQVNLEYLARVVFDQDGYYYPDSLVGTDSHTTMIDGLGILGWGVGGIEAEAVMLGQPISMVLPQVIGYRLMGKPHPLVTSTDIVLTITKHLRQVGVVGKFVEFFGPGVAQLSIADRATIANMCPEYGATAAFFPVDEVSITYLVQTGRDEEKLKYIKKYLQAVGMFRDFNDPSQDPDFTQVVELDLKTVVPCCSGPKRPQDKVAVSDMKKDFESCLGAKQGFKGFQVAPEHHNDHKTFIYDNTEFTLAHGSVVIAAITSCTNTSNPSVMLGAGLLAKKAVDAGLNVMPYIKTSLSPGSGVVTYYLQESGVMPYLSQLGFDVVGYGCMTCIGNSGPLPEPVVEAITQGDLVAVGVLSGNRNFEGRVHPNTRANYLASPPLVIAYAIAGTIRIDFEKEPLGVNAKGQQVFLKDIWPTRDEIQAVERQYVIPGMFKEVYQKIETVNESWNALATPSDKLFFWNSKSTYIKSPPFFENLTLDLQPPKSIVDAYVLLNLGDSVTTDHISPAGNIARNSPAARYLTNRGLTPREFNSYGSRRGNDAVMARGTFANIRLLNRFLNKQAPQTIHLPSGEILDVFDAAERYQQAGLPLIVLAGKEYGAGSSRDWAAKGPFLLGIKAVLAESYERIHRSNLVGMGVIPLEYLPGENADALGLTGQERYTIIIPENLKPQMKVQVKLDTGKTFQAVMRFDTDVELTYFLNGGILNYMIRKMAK
# Variants of: B1
# Details: with abcb5_human ABCB5, Q2M3G0
row,Variant,effect of a mutation on the interaction
1,G386D,with no effect

# Variants of: B2
# Details: with ddr2_human DDR2, Q16832
row,Variant,effect of a mutation on the interaction
1,R361H,with no effect

# Variants of: B2
# Details: with ddr2_human DDR2, Q16832
# Remark: another data set of the same source
row,Variant,effect of a mutation on the interaction
1,R361C,with no effect

# Variants of: B2
# Details: with ddr2_human DDR2, Q16832
# Remark: another data set of the same source
row,Variant,effect of a mutation on the interaction
1,D351H,with no effect

# Variants of: B2
# Details: with ddr2_human DDR2, Q16832
# Remark: another data set of the same source
row,Variant,effect of a mutation on the interaction
1,G386D,with no effect

# Variants of: B3
# Details: with braf_human BRAF
row,Variant,effect of a mutation on the interaction
1,K49E,disrupting interaction strength

# Variants of: B4
# Details: with dcx_human DCX
row,Variant,effect of a mutation on the interaction
1,R361C,with no effect

# Variants of: B4
# Details: with dcx_human DCX
# Remark: another data set of the same source
row,Variant,effect of a mutation on the interaction
1,R361H,with no effect

# Variants of: B4
# Details: with dcx_human DCX
# Remark: another data set of the same source
row,Variant,effect of a mutation on the interaction
1,G386D,with no effect

# Variants of: B4
# Details: with dcx_human DCX
# Remark: another data set of the same source
row,Variant,effect of a mutation on the interaction
1,D351H,with no effect

# Variants of: B5
# Details: with acohc_human ACO1, P21399
row,Variant,effect of a mutation on the interaction
1,D351H,with no effect

# Variants of: B5
# Details: with acohc_human ACO1, P21399
# Remark: another data set of the same source
row,Variant,effect of a mutation on the interaction
1,R361C,with no effect

# Variants of: B5
# Details: with acohc_human ACO1, P21399
# Remark: another data set of the same source
row,Variant,effect of a mutation on the interaction
1,R361H,with no effect

# Variants of: B5
# Details: with acohc_human ACO1, P21399
# Remark: another data set of the same source
row,Variant,effect of a mutation on the interaction
1,G386D,with no effect
